Reference: paper PMC11088703, “Structural basis of human NOX5 activation” (Nature Communications, 2024)
Residue numbers refer to the chain shown, from its start.

B1: full-length human NADPH oxidase 5 (NOX5), NOX5-β variant (enzyme, UniProt Q96PH1-4 1-719, looked up)
chain: MSAEEDARWLRWVTQQFKTIAGEDGEISLQEFKAALHVKESFFAERFFALFDSDRSGTITLQELQEALTLLIHGSPMDKLKFLFQVYDIDGSGSIDPDELRTVLQSCLRESAISLPDEKLDQLTLALFESADADGNGAITFEELRDELQRFPGVMENLTISAAHWLTAPAPRPRPRRPRQLTRAYWHNHRSQLFCLATYAGLHVLLFGLAASAHRDLGASVMVAKGCGQCLNFDCSFIAVLMLRRCLTWLRATWLAQVLPLDQNIQFHQLMGYVVVGLSLVHTVAHTVNFVLQAQAEASPFQFWELLLTTRPGIGWVHGSASPTGVALLLLLLLMFICSSSCIRRSGHFEVFYWTHLSYLLVWLLLIFHGPNFWKWLLVPGILFFLEKAIGLAVSRMAAVCIMEVNLLPSKVTHLLIKRPPFFHYRPGDYLYLNIPTIARYEWHPFTISSAPEQKDTIWLHIRSQGQWTNRLYESFKASDPLGRGSKRLSRSVTMRKSQRSSKGSEILLEKHKFCNIKCYIDGPYGTPTRRIFASEHAVLIGAGIGITPFASILQSIMYRHQKRKHTCPSCQHSWIEGVQDNMKLHKVDFIWINRDQRSFEWFVSLLTKLEMDQAEEAQYGRFLELHMYMTSALGKNDMKAIGLQMALDLLANKEKKDSITGLQTRTQPGRPDWSKVFQKVAAEKKGKVQVFFCGSPALAKVLKGHCEKFGFRFFQENF
notes: NADPH oxidase 5, human, NOX5-β variant (called v2 isoform in the methods); full length; a Zn2+ is modelled between the two CXXC motifs at the dimer interface; also called NOX5 v2 isoform; hNOX5; source: HEK293F, BacMam virus, purified (GFP-nanobody beads, preScission cleavage, Superose 6 SEC in digitonin); not shown: GFP, N-terminal, cleaved
B2: NOX5 R530A (enzyme, human, UniProt Q96PH1-4 1-719, looked up)
chain: B1 chain with R530A
notes: NADPH oxidase 5, human, NOX5-β variant (v2 isoform in the methods; UniProt Q96PH1-4), point mutant; source: HEK293F, purified with the same protocol as NOX5 wild type (GFP-nanobody beads, preScission cleavage); not shown: GFP, N-terminal, cleaved
B3: NOX5 R531A (enzyme, human, UniProt Q96PH1-4 1-719, looked up)
chain: B1 chain with R531A
notes: as for B2
B4: NOX5 R426A (enzyme, human, UniProt Q96PH1-4 1-719, looked up)
chain: B1 chain with R426A
notes: as for B2

Key:
[1] = molecular target: the molecule itself; test: cryo-EM structure; purified NOX5 in 0.05% digitonin; pre-reaction (5 mM EGTA + 1 mM NADPH), intermediate (1 mM CaCl2 + 1 mM NADPH) and post-reaction (1 mM CaCl2 + 1.2 mM NADP+ + 60 uM FAD) states; C2 symmetry imposed
[2] = molecular target: the molecule itself; test: SEC; Trp fluorescence-based gel filtration; Superose 6 Increase; 20 mM Tris pH 8.0, 200 mM NaCl, 0.004% LMNG/CHS; excitation 280 nm, emission 350 nm

| Protein | stoichiometry N [1] | binding result [2] |
| --- | --- | --- |
| B1 | 2 |  |
| B2 |  | binds |
| B3 |  | binds |
| B4 |  | binds |
